Laboratory results published in PMC11392913.

Target: H. pylori PflB_(Δ140), the periplasmic α-helical domain of paralyzed flagellum protein B (Helicobacter pylori (strain SS1))
Assay: SEC; Superdex 200 10/300 GL, 20 mM Tris-HCl pH 8.0, 150 mM NaCl, 10% glycerol, 4 CMC LDAO; mass from a calibration with globular standards

Substance: H. pylori PflB_(Δ140), the periplasmic α-helical domain of paralyzed flagellum protein B (domain or fragment)
- stoichiometry N: > 4
